Publication PMC8534003, “The Chemokine-Based Peptide, CXCL9(74-103), Inhibits Angiogenesis by Blocking Heparan Sulfate Proteoglycan-Mediated Signaling of Multiple Endothelial Growth Factors” (Cancers, 2021)

Assays:
[1] = system: human microvascular endothelial cells (HMVECs); experiment: Endothelial cell proliferation assay (MTT or ATP lite); format: cell-based; conditions: EGF, VEGF165 5 ng/mL or FGF-2 3 ng/mL as single stimulus
Experimental: The ability of the CXCL9-derived peptides to inhibit growth factor-induced proliferation of endothelial cells was assessed. HMVECs were seeded at 5 × 10^3 cells/well in EBM™-2 medium containing 1% (v/v) FCS (proliferation medium). After settling of the cells, they were stimulated with EGF, VEGF165 (both 5 ng/mL) or FGF-2 (3 ng/mL) as a single stimulus or in combination with CXCL9(86-103) or CXCL9(74-103) at 0.3 or 3 µM in proliferation medium or left untreated. HMVECs were also treated with 0.3 or 3 µM of CXCL9(74-103) or 3 µM of CXCL9(86-103) alone to assess the effect of CXCL9-derived peptide treatment on spontaneous proliferation. After 3 to 4 days, a 3-(4,5-dimethylthiazol-2-yl)-2,5-diphenyl tetrazolium bromide (MTT) or ATP lite assay was performed. The ATP lite assay was performed according to the manufacturer’s instructions (Perkin Elmer, Waltham, MA). When MTT was used as substrate, the medium was replaced with 200 µL of MTT solution (RPMI without phenol red containing 0.4 g/L MTT) and the cells were incubated at 37 °C and 5% CO2 in the dark for 4 hours. Then, the MTT solution was discarded and the formed formazan crystals were dissolved in 200 µL acidic propanol [0.04 M HCl, 0.1% (v/v) NP-40 in isopropanol] under continuous shaking in the dark for 10 min. The optical densities were measured at 570 nm and 630 nm (reference wavelength).

[2] = system: human microvascular endothelial cells (HMVECs); experiment: xCELLigence adhesion assay; format: cell-based; conditions: 50 ng/mL, 1 h, compared to untreated cells
Experimental: The wells of an E-plate (ACEA Biosciences, Inc.) were washed and coated with 0.1% (v/v) gelatin in phosphate-buffered saline (PBS) at 37 °C for 1 h. Following a washing step, wells were incubated with 0.1% (v/v) bovine serum albumin (BSA) in PBS at 37 °C for 1 h. After washing, 50 µL basal MCDB131 medium was added and the plate was allowed to equilibrate at 37 °C. HMVECs were harvested and seeded at 4 × 10^4 cells/well together with 50 ng/mL VEGF165 with or without 0.03, 0.3 or 3 µM of CXCL9(74-103) or 3 µM of CXCL9(86-103) in 100 µL control medium (vide supra). Real-time changes in electrical impedance depicted as cell indices, as measure for cell adhesion and spreading, were analyzed using the xCELLigence® RTCA DP System. The adhesion of HMVECs was analyzed 1 h after seeding.

[3] = fold lower affinity than FGF-2; cited from earlier work
From the text: In our present study, we wanted to explore the potential of CXCL9(74-103), a high affinity GAG-binding peptide, to interfere with angiogenesis by targeting growth factor-induced signaling cascades and associated processes. […] The obtained KD value lies within the range of the concentrations that were applied in the different in vivo and in vitro assays reported here. FGF-2-mediated proliferation, chemotaxis and sprouting in vitro was diminished by CXCL9(74-103). Also in vivo, CXCL9(74-103) treatment attenuated FGF-2-mediated neovascularization in the Matrigel plug assay. The inhibitory mechanism responsible for countering FGF-2 could be that (1) by direct interaction with FGF-2, CXCL9(74-103) can t ...

[4] = system: human microvascular endothelial cells (HMVECs); experiment: xCELLigence chemotaxis assay (HMVEC migration); format: cell-based; conditions: EGF 10 ng/mL, FGF-2 30 ng/mL or VEGF165 10 ng/mL in lower chamber
Experimental: To evaluate the effect of the CXCL9-derived peptides on growth factor-induced endothelial cell migration, the xCELLigence® real-time cell analyzer (RTCA DP) system (ACEA Biosciences, Inc.; San Diego, CA, USA) was used. First, 160 µL MCDB131 medium (Gibco) supplemented with 0.4% (v/v) FCS (control medium) or 160 µL control medium with 30 ng/mL FGF-2, 10 ng/mL VEGF165 or 10 ng/mL EGF were added to the lower chamber of a cell invasion/migration (CIM)-Plate (ACEA Biosciences, Inc.). After assembly of the lower and upper chamber, 50 µL of serum-free MCDB131 medium was added in the upper wells. Following equilibration of the plate at 37 °C for 1 h, HMVECs were added in the upper chamber at 4 × 10^4 cells in 100 µL/well. CXCL9(74-103) or CXCL9(86-103) was added together with the cells in the upper compartment at a concentration of 0.3 or 3 µM. The assembled CIM-Plate was left at room temperature for 30 min to allow the cells to settle onto the membrane. Finally, the plate was placed in the instrument at 37 °C to monitor cell migration for 15 h. Cell migration from one compartment to the other was recorded (one recording every minute) as changes in electrical impedance. These changes were converted into cell indices, as a measure of cell migration.

B1: VEGF165: human recombinant VEGF165 (Biolegend), stimulus (protein)
chain: MNFLLSWVHWSLALLLYLHHAKWSQAAPMAEGGGQNHHEVVKFMDVYQRSYCHPIETLVDIFQEYPDEIEYIFKPSCVPLMRCGGCCNDEGLECVPTEESNITMQIMRIKPHQGQHIGEMSFLQHNKCECRPKKDRARQENPCGPCSERRKHLFVQDPQTCKCSCKNTDSRCKARQLELNERTCRCDKPRR
- enhancement of proliferation by growth factor alone [1]: significant enhancement of proliferation
- adhesion in response to VEGF165 alone [2]: HMVECs adhered more profoundly to the substratum compared to untreated cells
- affinity for heparin compared to FGF-2 [3]: 8 fold
- enhancement of migration by growth factor alone [4]: significant enhancement of endothelial cell migration
